Test results from IntAct's records for PubMed 22274616.

B1: Protein PML (Homo sapiens), P29590 (parent)
chain: MEPAPARSPRPQQDPARPQEPTMPPPETPSEGRQPSPSPSPTERAPASEEEFQFLRCQQCQAEAKCPKLLPCLHTLCSGCLEASGMQCPICQAPWPLGADTPALDNVFFESLQRRLSVYRQIVDAQAVCTRCKESADFWCFECEQLLCAKCFEAHQWFLKHEARPLAELRNQSVREFLDGTRKTNNIFCSNPNHRTPTLTSIYCRGCSKPLCCSCALLDSSHSELKCDISAEIQQRQEELDAMTQALQEQDSAFGAVHAQMHAAVGQLGRARAETEELIRERVRQVVAHVRAQERELLEAVDARYQRDYEEMASRLGRLDAVLQRIRTGSALVQRMKCYASDQEVLDMHGFLRQALCRLRQEEPQSLQAAVRTDGFDEFKVRLQDLSSCITQGKDAAVSKKASPEAASTPRDPIDVDLPEEAERVKAQVQALGLAEAQPMAVVQSVPGAHPVPVYAFSIKGPSYGEDVSNTTTAQKRKCSQTQCPRKVIKMESEEGKEARLARSSPEQPRPSTSKAVSPPHLDGPPSPRSPVIGSEVFLPNSNHVASGAGEAEERVVVISSSEDSDAENSSSRELDDSSSESSDLQLEGPSTLRVLDENLADPQAEDRPLVFFDLKIDNETQKISQLAAVNRESKFRVVIQPEAFFSIYSKAVSLEVGLQHFLSFLSSMRRPILACYKLWGPGLPNFFRALEDINRLWEFQEAISGFLAALPLIRERVPGASSFKLKNLAQTYLARNMSERSAMAAVLAMRDLCRLLEVSPGPQLAQHVYPFSSLQCFASLQPLVQAAVLPRAEARLLALHNVSFMELLSAHRRDRQGGLKKYSRYLSLQTTTLPPAQPAFNLQALGTYFEGLLEGPALARAEGVSTPLAGRGLAERASQQS

Variants of: B1
Details: with per2_mouse Per2, O54943
Sequence of per2_mouse Per2, O54943 (O54943 whole entry): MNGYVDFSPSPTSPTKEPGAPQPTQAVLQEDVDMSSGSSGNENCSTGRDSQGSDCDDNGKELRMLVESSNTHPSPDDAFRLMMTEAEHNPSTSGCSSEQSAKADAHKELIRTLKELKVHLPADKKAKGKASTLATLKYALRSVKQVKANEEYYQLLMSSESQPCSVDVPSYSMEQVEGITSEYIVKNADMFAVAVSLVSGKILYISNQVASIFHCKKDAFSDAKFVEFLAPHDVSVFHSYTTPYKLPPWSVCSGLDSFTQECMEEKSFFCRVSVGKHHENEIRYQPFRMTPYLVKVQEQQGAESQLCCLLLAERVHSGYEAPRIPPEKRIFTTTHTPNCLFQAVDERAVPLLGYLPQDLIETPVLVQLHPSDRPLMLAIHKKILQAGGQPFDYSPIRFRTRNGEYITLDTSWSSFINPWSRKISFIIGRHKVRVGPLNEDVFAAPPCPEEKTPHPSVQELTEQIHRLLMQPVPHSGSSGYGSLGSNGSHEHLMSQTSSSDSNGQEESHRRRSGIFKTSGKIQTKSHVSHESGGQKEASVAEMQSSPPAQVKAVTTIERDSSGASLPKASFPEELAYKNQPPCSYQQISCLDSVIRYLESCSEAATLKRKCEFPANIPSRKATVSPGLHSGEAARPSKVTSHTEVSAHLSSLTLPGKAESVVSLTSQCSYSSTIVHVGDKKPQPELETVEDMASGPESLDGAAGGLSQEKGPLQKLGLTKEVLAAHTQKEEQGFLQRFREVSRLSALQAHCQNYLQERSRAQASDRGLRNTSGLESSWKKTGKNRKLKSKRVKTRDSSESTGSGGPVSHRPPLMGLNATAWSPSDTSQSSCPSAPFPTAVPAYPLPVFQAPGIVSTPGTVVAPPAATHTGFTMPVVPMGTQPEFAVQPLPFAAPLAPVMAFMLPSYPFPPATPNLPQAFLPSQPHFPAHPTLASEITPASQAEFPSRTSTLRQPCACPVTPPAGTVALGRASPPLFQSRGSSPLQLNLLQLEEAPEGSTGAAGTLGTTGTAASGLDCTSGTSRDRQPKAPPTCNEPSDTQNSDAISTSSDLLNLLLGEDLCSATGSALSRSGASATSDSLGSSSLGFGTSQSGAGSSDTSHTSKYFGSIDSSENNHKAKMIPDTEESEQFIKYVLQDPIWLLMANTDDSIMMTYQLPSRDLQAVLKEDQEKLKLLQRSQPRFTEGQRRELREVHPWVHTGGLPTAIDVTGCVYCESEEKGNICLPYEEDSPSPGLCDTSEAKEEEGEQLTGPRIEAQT
With K487R the “effect of a mutation on the interaction” value was “decreasing interaction strength”.
